Reference: the supplement of paper PMC9170038

Tested on: MS2 coat protein
Experiment: apparent KD of MS2 coat protein; designed switch direction (-1 OFF switch, 1 ON switch): -1; higher = weaker reporter binding
In short: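 Designed RNA switches were transcribed on Illumina chips by stalled E. coli RNA polymerase and titrated with SNAP-549-labelled MS2 coat protein from 0.7 or 1.5 nM, doubling to 3 µM. Step length ran from 0.8–1.5 h at the lowest concentration to 10–20 min at the highest. The apparent KD is the median over clusters for each design, from curve-fitted normalised cluster fluorescence.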

[1] = Eterna round: R95, input ligand: microRNA oligo, concentration not stated
[2] = input ligand: microRNA oligo, concentration not stated
[3] = Eterna round: R95, input ligand: FMN 200 uM
[4] = Eterna round: R95, input ligand: none

| Sequence | apparent KD of MS2 coat protein [1] | apparent KD of MS2 coat protein (input ligand: FMN 200 uM) | apparent KD of MS2 coat protein (input ligand: none) | other results |
| --- | --- | --- | --- | --- |
| GUGUAGAUAGGAUAUGCAAGAGUCUAGCGAAGCUAGAUUCUACAUGAGGAUCACCCAUGUAGAAGGGUCUACAC [Fiskers Ex 2 - 29] (puzzle: Exclusion 2) | 17.3 nM |  |  |  |
| ACAAGCUUGUAAUGAUUGAACAUGAGGAUCACCCAUGUAAAUGGAAGAACCAAUUUGAUAAGAUAUACUCGUCUUAU [JR_STOV1_Sub007] (Eterna round: R97, puzzle: Sensor, turn-off variant 1) |  | 57.8 nM | 59.1 nM |  |
| CCCUCAAGCGAGGAUAUAAAUGCGCAUUCGCGGUUAGAAGGCGCUACAUGAGGAUCACCCAUGUAAUUGAAUGG [jl-ex6-4.52 ViennaUCT mod] (Eterna round: R97, puzzle: Exclusion 6) |  | 117 nM | 58.7 nM |  |
| ACAAGCUUUUGCUCGUCUUACAUGAGGAUCACCCAUGUCGGGUGCUUGCUUACGUCCAGCAUCUGGACCGUAGCAGU [-24.6, -43.1 kcal, 19% A] (Eterna round: R97, puzzle: Sensor, turn-off variant 1) |  | 142 nM | 165 nM |  |
| GUGUACGGAGGAUAUAUAUGGGCAGCAUACGCUGCAGCUUCACAUGAGGAUCACCCAUGUAGAAGGCUGUACAC [Mat - Exclusion 2 - Mod of Hyphema - D100] (puzzle: Exclusion 2) | 22 nM |  |  |  |
| GGAUCGAAUGUGAGGAUAUGCAGGUCCUUGGAUCUGCAGAAGGCACAUGAGGAUCACCCAUGUGAUACCGAUCC [Mat - Exclusion 4 - Eli Mod - D42] (Eterna round: R97, puzzle: Brourd's mod of Exclusion 4) |  | 148 nM | 455 nM |  |
| GGUACUCAAAGAGUACCAAUACGAACAUGAGGAUCACCCAUGUAGGAUAUGCUACUCAAAGAGUAGCAGAAGGAUAUGAACCUU [Far Half Aptamer v9] (Eterna round: R96, puzzle: Exclusion NG 3) |  | 22.5 nM | 23.8 nM | apparent KD of MS2 coat protein [2]: 15.5 nM |
| GGUGAGCUAGGAUAUGCUUUGGGAACGCAUUCCUUCGAUAAACUUGAGGAUCACCCAAGUAGAAGGAGCUUGCC [salish99_ex2_r4_029] (Eterna round: R97, puzzle: Exclusion 2) |  | 158 nM | 34 nM |  |
| GUUAGACAUGAGGAUCACCCAUGUGAGGAUAUGAUGUGAAUAAAUAAUUAAUUAAGUAUCAGAAGGCACAUAUG [Mat - Mod of Hyphema D32] (puzzle: Exclusion 1) | 119 nM |  |  |  |
| AACCCUUGUGUUAGGAUAUGUCACUACCAUAUGCGACAGAAGGAACAUGAGGAUCACCCAUGUGAGUUAGCCAA [Quesveququ] (puzzle: Brourd's mod of Exclusion 4) | 36 nM |  |  |  |
| UCUCGACAUGAGGAUCACCCAUGUCAGGAUAUUGUGUUUGAGGUUUUUUACCUUUUGGCAAGAAGGGAUGUGUG [LRO-Excl1-21] (Eterna round: R96, puzzle: Exclusion 1) |  | 27.5 nM | 27.7 nM | apparent KD of MS2 coat protein [2]: 19.7 nM |
| UUUUUGUGAGGAUAUUAGUAGUAAAAAAAUAAAAUUACUACUGAGAAGGCACAUGAGGAUCACCCAUGUUCCUC [salish99_ex4_r3_040] (puzzle: Exclusion 4) | 34.9 nM |  |  |  |
| UAAUAGCAAGCAAGAUCCCACAUGAGGAUCACCCAUGUGCUCGUCUUAUAAGGUACUGUGACGAAAGUCACGGUACC [Sensor 3, v1 - 98] (puzzle: Sensor v3, turn-off variant 1) | 535 nM |  |  | apparent KD of MS2 coat protein [3]: 45.5 nM; apparent KD of MS2 coat protein [4]: 47.5 nM |
| CAGUUUUGAGUGAGGAUAUGUGAUCCAAAGGGUCAACAGAAGGCACAUGAGGAUCACCCAUGUAAUCCAAUUGG [Eternabot (L2) Solution 37] (Eterna round: R97, puzzle: Brourd's mod of Exclusion 4) |  | 1520 nM | 3760 nM |  |
| UUAUUAUAUGUAGGAUAUGCAUAUUAUUAUUGUGCAGAAGGACAUGAGGAUCACCCAUGUAUAUUAUUAUUAUAUAUUAUAUAU [Title] (Eterna round: R96, puzzle: Exclusion NG 1) |  |  |  | apparent KD of MS2 coat protein [2]: 26.5 nM |
| AAAUGAGAGCAGGAUAUCUUAUAAAUGUAUGAAAGAGAAGGGCUCACAUGAGGAUCACCCAUGUGGUCCUAGAU [jl-ex6-4.77 jandersonlee mod] (Eterna round: R97, puzzle: Exclusion 6) |  | 673 nM | 32.7 nM |  |
| AUCCAACAUGAGGAUCACCCAUGUGAGGAUAUGCCCAAAACUCUUCGAUCCGAAGAGCGCAGAAGGCACAUGAA [EX1 A.18] (Eterna round: R97, puzzle: Exclusion 1) |  | 33.4 nM | 13.2 nM |  |
| ACAAGCUUAGGUUUUCAUAACAUGAGGAUCACCCAUGUUCGUCUUAUAAAAAUAAAAAUAAAAAACAAAAAAUAAAA [Sensor V2: 66] (Eterna round: R96, puzzle: Sensor v2, turn-off variant) |  | 39.1 nM | 41.2 nM | apparent KD of MS2 coat protein [2]: 117 nM |
| UUUAACAGAGGAUAUGCGAAUAAAUAAAACUUUUUUUUUUAACAUGAGGAUCACCCAUGUAGAAGGCUGAUAUU [Ex2 #23] (Eterna round: R97, puzzle: Exclusion 2) |  | 34.9 nM | 29.9 nM |  |
| GGAUGGCGAGGAUAUACAUGAGGAUCACCCAUGUGAGAGAAAUAAGUGAGGAAGAAAAGUAGAAGGCGCAGACG [Mat - Exclusion 3 - Mod of Salish D45] (puzzle: Exclusion 3) | 55.7 nM |  |  | apparent KD of MS2 coat protein [3]: 11.1 nM; apparent KD of MS2 coat protein [4]: 53.1 nM |
| AUAAUGUGAGGAUAUCAGUAGUAUUGCCUCGGCAAUACUACUGAGAAGGCACAUGAGGAUCACCCAUGUGAUCA [E4/2-B2] (Eterna round: R97, puzzle: Exclusion 4) |  | 29.3 nM | 772 nM |  |
| GGUGAGCGAGGAUAUACAUGAGGAUCACCCAUGUGAGAGAAUAAAGUGAGGAAGAAAAGUAGAAGGCGCGAACG [Mat - Exclusion 3 - Mod of Salish D47] (puzzle: Exclusion 3) | 37.8 nM |  |  | apparent KD of MS2 coat protein [3]: 91.4 nM; apparent KD of MS2 coat protein [4]: 11.9 nM |
| UGUGCGUAUGUGAGGAUAUGCUGGUCCUUGGAUCAGCAGAAGGCACAUGAGGAUCACCCAUGUGGUGUCGUACA [salish99_Bmod_Ex4_007] (puzzle: Brourd's mod of Exclusion 4) | 158 nM |  |  | apparent KD of MS2 coat protein [3]: 29.2 nM; apparent KD of MS2 coat protein [4]: 307 nM |
| AUGAGGUUAGGAUAUACAUGAGGAUCACCCAUGUUGGAGAAGGAAGUGUAAGUAGCGAGUAGAAGGAACGGAGC [JR_Exclu3_Sub060] (puzzle: Exclusion 3) | 51.1 nM |  |  | apparent KD of MS2 coat protein [3]: 37.5 nM; apparent KD of MS2 coat protein [4]: 48.4 nM |
| GGGAAGAACCAACAAGUUAACAUGAGGAUCACCCAUGUUGACUUCAUGUGCACGCAAAGCGUGCAAGCUCGUCUUAU [AK-miRNA-r3-15] (Eterna round: R97, puzzle: Sensor, turn-off variant 1) |  | 17.9 nM | 17.2 nM |  |
| GUGAAACAUGAGGAUCACCCAUGUGAGGAUAUGUUUUAGUACUGCAGACAGUACAUCUAUAGAAGGCACAAUGG [Mat - Mod of JL D74] (puzzle: Exclusion 1) | 37 nM |  |  |  |
